Reference: article PMC10085699
Where a chain is given by its changes, count along the chain named.

How the values were obtained:
Assay in all cases: EMSA
SETX-HD-R/H = target: T1, SETX-HD-R/H (Homo sapiens, UniProt Q7Z333 1674-2677, R2136H)
T1 sequence: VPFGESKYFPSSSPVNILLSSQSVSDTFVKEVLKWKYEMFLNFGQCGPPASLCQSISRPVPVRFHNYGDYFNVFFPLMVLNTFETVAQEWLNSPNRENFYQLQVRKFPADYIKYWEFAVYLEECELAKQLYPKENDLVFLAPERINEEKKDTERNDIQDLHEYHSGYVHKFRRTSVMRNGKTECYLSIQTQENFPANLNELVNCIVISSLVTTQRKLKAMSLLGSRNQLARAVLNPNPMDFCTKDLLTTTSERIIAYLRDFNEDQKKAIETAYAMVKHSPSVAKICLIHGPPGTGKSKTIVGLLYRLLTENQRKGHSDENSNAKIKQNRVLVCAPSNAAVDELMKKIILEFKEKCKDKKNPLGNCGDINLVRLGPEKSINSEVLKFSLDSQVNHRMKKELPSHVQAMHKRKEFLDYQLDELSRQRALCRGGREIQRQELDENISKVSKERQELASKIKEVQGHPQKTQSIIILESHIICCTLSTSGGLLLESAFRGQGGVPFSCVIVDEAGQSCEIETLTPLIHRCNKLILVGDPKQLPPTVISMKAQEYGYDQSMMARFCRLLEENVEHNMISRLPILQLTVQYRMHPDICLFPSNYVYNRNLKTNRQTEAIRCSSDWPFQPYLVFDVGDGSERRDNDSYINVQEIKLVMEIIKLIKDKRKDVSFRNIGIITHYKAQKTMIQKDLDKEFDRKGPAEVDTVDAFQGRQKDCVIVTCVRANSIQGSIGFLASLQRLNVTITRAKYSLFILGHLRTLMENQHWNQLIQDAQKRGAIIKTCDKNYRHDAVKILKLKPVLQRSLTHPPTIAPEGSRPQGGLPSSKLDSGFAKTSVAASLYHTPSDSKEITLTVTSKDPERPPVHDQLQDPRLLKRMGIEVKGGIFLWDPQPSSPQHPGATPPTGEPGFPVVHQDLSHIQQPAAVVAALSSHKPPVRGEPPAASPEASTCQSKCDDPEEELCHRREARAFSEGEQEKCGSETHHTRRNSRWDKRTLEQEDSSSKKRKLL

SETX-HD-DE/AA = target: T2, SETX-HD-DE/AA (Homo sapiens, UniProt Q7Z333 1674-2677, D2181A;E2182A)
T2 sequence: T1 sequence with H463R, D508A, E509A

Sen1-HD = target: T3, Sen1-HD (UniProt Q00416 1095-1904)
T3 sequence: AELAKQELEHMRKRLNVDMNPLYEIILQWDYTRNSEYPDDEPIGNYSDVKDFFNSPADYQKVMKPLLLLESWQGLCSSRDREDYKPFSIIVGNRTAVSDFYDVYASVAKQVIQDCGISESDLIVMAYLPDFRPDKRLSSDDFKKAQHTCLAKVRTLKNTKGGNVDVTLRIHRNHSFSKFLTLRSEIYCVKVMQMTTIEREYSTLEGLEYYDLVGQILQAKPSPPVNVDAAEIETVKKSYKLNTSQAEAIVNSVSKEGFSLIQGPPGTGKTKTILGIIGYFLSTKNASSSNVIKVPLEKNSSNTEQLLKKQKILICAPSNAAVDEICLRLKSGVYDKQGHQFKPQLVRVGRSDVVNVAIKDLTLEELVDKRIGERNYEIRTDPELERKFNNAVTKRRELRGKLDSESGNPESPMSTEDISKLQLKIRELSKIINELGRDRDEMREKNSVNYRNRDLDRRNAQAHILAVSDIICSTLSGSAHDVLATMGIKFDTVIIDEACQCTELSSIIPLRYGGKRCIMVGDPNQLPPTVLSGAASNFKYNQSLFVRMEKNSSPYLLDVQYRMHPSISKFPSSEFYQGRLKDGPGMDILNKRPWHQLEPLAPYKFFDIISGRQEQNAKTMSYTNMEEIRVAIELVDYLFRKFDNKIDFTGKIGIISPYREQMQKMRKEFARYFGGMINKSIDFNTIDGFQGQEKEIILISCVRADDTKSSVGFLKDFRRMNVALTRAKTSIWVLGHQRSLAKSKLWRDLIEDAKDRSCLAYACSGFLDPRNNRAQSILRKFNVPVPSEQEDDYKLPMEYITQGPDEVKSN

Measured: binding result

B1: ssDNA pRMS679 (61 nt) (ssDNA)
DNA: TTGTCTTCTCATAAATTTAATCCCCGTACGCTTATACTCCTTTAACTACCCAGTCTTCCCG
binds: all assays above
